Experimental data from patent US20210371538A1 (Genmab, published 2021).

Biological target: T1, CD20 (human, UniProt P11836 1-297, limits assumed)
T1 construct: The KD sentence says only 'CD20'; also called human CD20; B-cell antigen CD20
T1 sequence (looked up): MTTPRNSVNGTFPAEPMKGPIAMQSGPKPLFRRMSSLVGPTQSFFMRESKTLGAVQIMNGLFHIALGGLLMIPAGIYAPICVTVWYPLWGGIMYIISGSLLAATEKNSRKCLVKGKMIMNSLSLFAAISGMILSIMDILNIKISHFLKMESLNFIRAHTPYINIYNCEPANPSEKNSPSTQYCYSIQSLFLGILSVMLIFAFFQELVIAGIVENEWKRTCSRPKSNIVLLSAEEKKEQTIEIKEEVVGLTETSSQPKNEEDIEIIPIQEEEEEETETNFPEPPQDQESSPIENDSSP
Experiment: in vitro measurement, method not stated; used as a PK/PD model parameter

B1: DuoBody-CD3×CD20 (bispecific antibody, human IgG1, kappa, lambda)
heavy 1: not shown
light 1: not shown
heavy 2: EVQLVESGGGLVQPDRSLRLSCAASGFTFHDYAMHWVRQAPGKGLEWVSTISWNSGTIGYADSVKGRFTISRDNAKNSLYLQMNSLRAEDTALYYCAKDIQYGNYYYGMDVWGQGTTVTVSSASTKGPSVFPLAPSSKSTSGGTAALGCLVKDYFPEPVTVSWNSGALTSGVHTFPAVLQSSGLYSLSSVVTVPSSSLGTQTYICNVNHKPSNTKVDKRVEPKSCDKTHTCPPCPAPEFEGGPSVFLFPPKPKDTLMISRTPEVTCVVVAVSHEDPEVKFNWYVDGVEVHNAKTKPREEQYNSTYRVVSVLTVLHQDWLNGKEYKCKVSNKALPAPIEKTISKAKGQPREPQVYTLPPSREEMTKNQVSLTCLVKGFYPSDIAVEWESNGQPENNYKTTPPVLDSDGSFFLYSRLTVDKSRWQQGNVFSCSVMHEALHNHYTQKSLSLSPG
light 2: not shown
notes: Full-length IgG1 bispecific with an inert Fc (L234F, L235E, D265A), made by controlled Fab-arm exchange of IgG1-CD3-FEAL and IgG1-CD20-FEAR; One heavy/light pair for each arm; also called epcoritamab; GEN3013
Kd: 5.4 nM
